In US7005283B2, “Cytochrome P450 oxygenases and their uses” (Washington State University Research Foundation, priority 1999, dated 2006):

Tests used:
[1] = type: binding, Saccharomyces cerevisiae
Text: CO-sensor of the 19 full-length cytochrome P450 clones from Taxus, thus far obtained, ten have yielded detectable CO-difference spectra (Table 2). […] These alternative expression systems for cytochrome P450 genes include the yeast Pichia pastoris, for which expression vectors and hosts are commercially available (Invitrogen, Carlsbad, Calif.), as well as established E. coli and baculovirus-insect cell systems for which general expression procedures have been described (Barnes, Methods Enzymol. 272:1–14, 1996;Gonzalez et al., Methods Enzymol. 206:93–99, 1991;Lee et al., Methods Enzymol. 272:86–98, 1996;and Lupien et al., Arch. Biochem. Biophys. 368:181–192, 1999).
Appropriate restriction sites were introduced by standard PCR methods (Innis et al., PCR Protocols: A Guide to Methods and Applications, Academic Press, San Diego, Calif., 1990) immediately upstream of the ATG start codon and downstream of the stop codon of all full-length cytochrome P450 clones. These modified amplicons were gel-purified, digested with the corresponding restriction enzymes, and then ligated into the expression vector pYeDP60. The vector/insert junctions were sequenced to ensure that no errors had been introduced by the PCR construction. Verified clones were transformed into yeast using the lithium acetate method (Ito et al., J. Bacteriol. 153:163–168, 1983). Isolated transformants were grown to stationary phase in SGI medium (Pompon et al., Methods Enzymol. 272:51–64, 1996), and used as inocula for a large-scale expression culture grown in YPL medium (Pompon et al., Methods Enzymol. 272:51–64, 1996). Approximately 24 hours after induction of cytochrome P450 expression with galactose (to 10% final concentration), a portion of the yeast cell culture was harvested by centrifugation. One-half of the culture was treated with carbon monoxide, and the cytochrome P450 CO-difference spectrum was recorded directly (using untreated cells as a control) by spectrophotometry (Omura and Sato, J. Biol. Chem. 239:2370–2378, 1964).

[2] = In vivo assay of yeast cells expressing recombinant oxygenases, radio-HPLC, substrate taxadien-5α-ol; type: cell-based, Saccharomyces cerevisiae; conditions: assayed with Taxadien5αol; graded symbols, key not given
Text: (§1) Transformed yeast cells that fimctionally express a recombinant cytochrome P450 gene from Taxus (by CO-difference spectrum) can be tested in vivo for their ability to oxygenate (hydroxylate or epoxidize) taxoid substrates fed exogenously to the cells, thereby eliminating the need for microsome isolation for preliminary in vitro assays.
(§2) Accordingly, several clones of the available full-length clones were expressed in induced yeast host cells.
(§3) Isolated transformants for each full-length cytochrome P450 clone shown to express a functional enzyme by CO-difference spectrum (ten clones) were grown to stationary phase in 2 mL SGI medium at 30° C. and used to inoculate a 10-mL expression culture (in YPL medium). Approximately 8 hours after induction, cells were harvested by centrifugation (10 minutes at 1500 rpm), and the pellet was resuspended in 2 mL of fresh YPL medium.
(§4) To eliminate additional complication and uncertainty associated with microsome isolations for in vitro assays, 10^6 dpm of [20-^3H3]taxa-4(5),11(12)-diene (16 Ci/mol) or [20-^3H2]taxa-4(20),11(12)-diene-5-α-ol (4.0 Ci/mol), or other taxoid substrate were added directly to the cell suspension to assay conversion in vivo. After 12 hours of incubation at 30° C. with agitation (250 rpm), the mixture was treated for 15 minutes in a sonication bath and extracted 3 times with 2 mL diethyl ether to insure isolation of the biosynthetic products. These ether extracts, containing residual substrate and derived product(s), were concentrated to dryness, resuspended in 200 μL of CH3CN, and filtered. These samples were analyzed by radio-HPLC (Hefner et al., Chemistry and Biology 3:479–489, 1996) using a 4.6 mm i.d.×250 mm column of Econosil C18, 5 μ (Alltech, Deerfield, Ill.) with a gradient of CH3CN in H2O from 0% to 85% (10 minutes at 1 mL/minute), then to 100% CH3CN over 40 minutes.

[3] = In vivo assay of yeast cells expressing recombinant oxygenases, radio-HPLC, substrate taxadiene; type: cell-based, Saccharomyces cerevisiae; conditions: assayed with Taxadiene; graded symbols, key not given
Text: as §1, §2, §3, §4

B1: clone F56: Taxus cuspidata cytochrome P450 oxygenase, full-length clone, SEQ ID NO: 49 (nt) / 62 (aa) (protein, listed as Taxus cuspidata)
chain: MDTLIQIQSSPDFLSFTLTAFLGVVVLLIFRYKHRSALKLPPGNLGLPFIGETITFASQPPQKFLNERGKKFGPVFKTSLIGHPTVVLCGSSGNRFLLSNEEKLVRMSLPNSYMKLLGQDSLLGKTGQEHRIVRTALGRFLGPQELQNHVAKMSSDIQHHINQKWKGNDEVKVLPLIRNLVFSIATSLFFGINDEHQQERLHLLLETIVMGAVCIPLAFPGSGFRKALQARSELDGILISLMKIRRSDLRSGAASSNQDLLSVLLTFKDERGNPLTDKEILDNFSVLLHGLYDTTISPLTLIFKLMSSNTECYENVVQEQLEILSHREKGEEIGWKDLKSMKYTWQAIQETLRMFPPVYGNFRKALTDIHYDGYTIPKGWRVLCSPFTTHSNEEYFNEPDEFRPSRFEGQGKNVPSYTFIPFGGGLRICPGWEFAKTEMLLFIHYFVKTFSSYVPVDPNEKISADPLASFPVNGFSVKLFPRS
CO diff. spec. [1]: − | product identified HPLC peak [2]: No | product identified HPLC peak [3]: No

B2: clone F10: Taxus cuspidata cytochrome P450, outlying full-length clone, SEQ ID NO: 55 (nt) / 68 (aa) (protein, listed as Taxus cuspidata)
chain: MAFEAATVILFTLAALLLVVIQRRRIRRHKLQGKVKAPQPPSWPVIGNLHLLTQKVPIHRILSSLSESYGPIMHLQLGLRPALVIASSDLAKECFTTNDKAFASRPRLSAGKHVGYDYKIFSMAPYGSYWRNLRKMCTIQILSATRIDSFRHIRVEEVSALIRSLFDSCQREDTPVNMKARLSDLTFSIILRMVANKKLSGPVYSEEYEEADHFNQMIKQSVFLLGAFEVGDFLPFLKWLDLQGFIAAMKKLQQKRDVFMQKLVIDHREKRGRVDANAQDLIDVLISATDNHEIQSDSNDDVVKATALTMLNAGTDTSSVTIEWALAALMQHPHILSKAQQELDTHIGRSRLLEEADLHELKYLQAIVKETLRLYPAAPLLVPHEAIEDCTVGGYHVSAGTRLIVNAWAIHRDPAVWERPTVFDPERFLKSGKEVDVKGREFELIPFGSGRRMCPGMSLALSVVTYTLGRLLQSFEWSVPEGMIIDMTEGLGLTMPKAVPLETIIKPRLPFHLY
CO diff. spec. [1]: + | product identified HPLC peak [2]: No | product identified HPLC peak [3]: No

B3: clone F19: Taxus cuspidata cytochrome P450 oxygenase, full-length clone, SEQ ID NO: 50 (nt) / 63 (aa) (protein, listed as Taxus cuspidata)
chain: MDAFNILKGPAAKLNGVVQLGSYTDRILSITVVAFITILLLLMLRWKSQSSVKLPPGNFGFPLIGETLQLLRAFRSNTTQQFFDERQKKFGCVFKTSLVGERTVVLCGPSGNRLVLANQNKVVESSWPSAFIKLIGEDSIANTNGEKHRILRAALLRYLGPGSLQNYVGKMRSEIEHHINEKWKGKDEVKVLDLVRKNVFSVATALFFGVNDEERKRIRPPSILRKLHFAGSFSIPLDFPGTSYRRALEARLKLDKILSSLIERRRSDLRSGLASGNEDLVSVLLTFKDEGGNPLTDKEILDNFSGLLHASYDTTTSALTLTFKLMSSSAECYDKVVQEQLRIVSNKKEGEEISLKDLKDMKYTWQVVQETLRMFPPLFGSFRKTIADIQYDGYTIPKGWKVLWATYTTHGRDEYFSEPQKFRPSRFEEGGKHVAPYTFLPFEGGERTCPGYEFSKTHILLFIHQFVKTFTGYIPLDPNESISANPLPPLPANGFPVKLFQRS
CO diff. spec. [1]: − | product identified HPLC peak [2]: No | product identified HPLC peak [3]: No

B4: clone F42: Taxus cuspidata cytochrome P450 oxygenase, full-length clone, SEQ ID NO: 45 (nt) / 58 (aa) (protein, listed as Taxus cuspidata)
chain: MDSFSFLKSMEAKFGQVIHRDQSSSTALLSLAFTAAVAIFLVLLFRFKSRPSTNFPPGNFGFPFIGETIQFLRALRSESPHMFFDERLKKFGRVFKTSLTGHPTAVFCGPAGNRFIYSNEHKLVQSSGPNSFVKLVGQQSIVTKTGEEHRIFLGVLNEFLGPHALQSYTPKMSSKIQENINKHWKGKDEVNMLPSIRQLVFSISSSLFFDINDEDQQEQLKTLLETILVGTLSVPLDIPGSNFRKALRARSKLDEILSRLIESRRKDMRSGIASTSKNLLSVLLAFKDERGNPLTDTEILDNFSFMLHASYDTTVSPTVCIFKLLSANPECYEKVVQEQLGILGNKKDGEEMCWNDLKAMKYTWQAAQETMRLFPPAFGSFRKVIADIHHDGYIIPKGWKAMVTNYSTSRKEEYFDEPDNFKPSRFGDGKYVAPYTFLPFGAGIRICPGWEFAKLEMLLFIHHFVKNFSGYLPLDTKEKISGDPFPPLPKNGFPIKLFPRT
CO diff. spec. [1]: − | product identified HPLC peak [2]: No | product identified HPLC peak [3]: No

B5: clone F55: Taxus cuspidata cytochrome P450 oxygenase, full-length clone, SEQ ID NO: 52 (nt) / 65 (aa) (protein, listed as Taxus cuspidata)
chain: METKFGQLMQLEFLPFILTPILGALVLLHLFRHRNRSSVKLPPGKLGFPVIGETIQFLRALRSQTPQKFFDDRVQKFGGVFKTSLIGNPLVVMCGPAGNRLVLSNEDKLVQLEAPNSLMKLMGQDSLLAKRQEDHRTLRAALARFLGPQALXNYMTKISSRTEHHMNEKWKGKDEVRTLPLIRELIFSNASSLFFDINDEHQQERLHHLLEAVVVGSMSIPLDFPGTRLRKALQARSKLDEILSSLIKSRRKDLVSGIASDDQDLLSVLLTFKDERGNPLTDKEILDNFSLLLHASYDTTVSPMVLTLKLLSSNPECYEKVVQEQLGIVANKRIGEEISWKDLKAMKYTWQVVQETLRMFPPLFGSFRKAMVDIDYDGYTIPKGWMILWTTYGTHLREEYFNEPLKFRPSRFEEDGRVTPYTFIPFGGGARTCPGWEFSKTEILLFIHHFVRTFSSYLPVDSNEKISADPFPPLPANGFSIKLSADPFPPLPANGFSIKLFPRSQSN
modifications: not fully specified; (1)..(507) “Xaa” equals any peptide
CO diff. spec. [1]: − | product identified HPLC peak [2]: No | product identified HPLC peak [3]: No

B6: clone F23: Taxus cuspidata cytochrome P450 oxygenase, full-length clone, SEQ ID NO: 84 (nt) / 90 (aa) (protein, listed as Taxus cuspidata)
chain: MELWNMFLPWISIATATSLTVGMASAFAIIYAPLLLSFLRLKTARRNMPPIPPGSMGMPFWGESLGYLGSWNNQSNPDVWYDTRKAKHGKIFTTHILGSPTVVMLGPDANRFILINENKLFLNSWPKSLNALIGKHALITSQGAEHKRMRRIIHSVLGPRNPETSVGRFEGLVLHHLDSDWHGGQIIQAYRQVKDMALCLAADFFMGLKPGKELETFRRHFSDFSAGLLSHPLDLPWTVFGKAKRARAAMVTQIFSQIRLHRTSMHKSGEEGGNFLDMVLGSQEKGGDLRLSEEEIADNLMGLLTGGQDTTASALATILKHLSLSPHLLQRLRKECEKLRDNKEAGGPLTWSEIKSVGYLHNVISEGLRMVAPINGGFKKAKVDVVYGGYTIPKGWKVHYSVRQTNNKEEYFPSPERFDPDRFNERHEPFSFIPFGQGNRMCPGNEFARLEMELFLYHLVLRYDWELMEADERTNMYFIPHPVHSLPLLLKHVPPT
CO diff. spec. [1]: − | product identified HPLC peak [2]: No | product identified HPLC peak [3]: No
